What was measured:
HEK293A = assay: Example 44 signal sequence exchange study, secreted G-CSF ELISA; type: cell-based, human; settings: 293A, 250 ng modified mRNA, supernatant after 24 hrs
Source text: (§1) These variants included the G-CSF constructs encoding either the wild-type N terminal secretory signal peptide sequence ([…]; SEQ ID NO: 21), no secretory signal peptide sequence, or secretory signal peptide sequences taken from other mRNAs. These included sequences where the wild type GCSF signal peptide sequence was replaced with the signal peptide sequence of either: human α-1-anti trypsin (AAT) ([…]; SEQ ID NO: 22), human Factor IX (FIX) ([…]; SEQ ID NO: 23), human Prolactin (Prolac) ([…]; SEQ ID NO: 24), or human Albumin (Alb) ([…]; SEQ ID NO: 25).
(§2) 250 ng of modified mRNA encoding each G-CSF variant was transfected into HEK293A (293A in the table), mouse myoblast (MM in the table) (C2C12, CRL-1772, ATCC) and rat myoblast (RM in the table) (L6 line, CRL-1458, ATCC) cell lines in a 24 well plate using 1 ul of Lipofectamine 2000 (Life Technologies), each well containing 300,000 cells. […] The data shown in Table 68 reveal that cells transfected with G-CSF mmRNA encoding the Albumin signal peptide secrete at least 12 fold more G-CSF protein than its wild type counterpart.

mouse myoblast (C2C12) = assay: as above; type: cell-based; settings: MM, 250 ng modified mRNA, supernatant after 24 hrs
Source text: as §1, §2

rat myoblast (L6 line) = assay: as above; type: cell-based; settings: RM, 250 ng modified mRNA, supernatant after 24 hrs
Source text: as §1, §2

[1] = tested on: Human primary foreskin fibroblasts (BJ fibroblasts); assay: Innate immune response transcripts in BJ fibroblasts, single transfection (qPCR); type: cell-based; settings: 250 ng, 18 hours
Experimental: The cells were harvested after 18 hours, the total RNA was isolated and DNASE® treated using the RNeasy micro kit (catalog #74004) following the manufacturer's protocol. 100 ng of total RNA was used for cDNA synthesis using High Capacity cDNA Reverse Transcription kit (catalog #4368814) following the manufacturer's protocol. The cDNA was then analyzed for the expression of innate immune response genes by quantitative real time PCR using SybrGreen in a Biorad CFX 384 instrument following manufacturer's protocol. […] In the table, the panel of standard metrics includes: RIG-I is retinoic acid inducible gene 1, IL6 is interleukin-6, OAS-1 is oligoadenylate synthetase 1, IFNb is interferon-beta, AIM2 is absent in melanoma-2, IFIT-1 is interferon-induced protein with tetratricopeptide repeats 1, PKR is protein kinase R, TNFa is tumor necrosis factor alpha and IFNa is interferon alpha.

[2] = tested on: Human primary foreskin fibroblasts (BJ fibroblasts); assay: Innate immune response in BJ fibroblasts, repeat transfection: cytokine response; type: cell-based
Female BALB/C mice = assay: In vivo detection of innate immune response: human G-CSF and mouse IFN-alpha in serum after I.M. injection
Experimental: Blood is collected at 8 hours after dosing and using ELISA the protein levels of G-CSF and interferon-alpha (IFN-alpha) is determined by ELISA and are shown in Table 81.

[3] = Stability of modified RNA on storage (gel electrophoresis); type: physicochemical; settings: gel electrophoresis
Experimental: Stability experiments were conducted to obtain a better understanding of storage conditions to retain the integrity of modified RNA. […] After the mRNA had been stored for 0 hours, 2 hours, 6 hours, 24 hours, 48 hours, 5 days and 14 days, the mRNA was analyzed by gel electrophoresis using a Bio-Rad EXPERION′ system. The modified, unmodified and lipoplexed G-CSF mRNA was also stored in RNASTABLE® (Biomatrica, Inc. San Diego, Calif.) at 40° C. or water at −80° C. or 40° C. for 35 days before being analyzed by gel electrophoresis.
mRNA samples stored at 4° C., 25° C. and 37° C. were stored in 1× TE buffer or the formulation buffer (150 mM sodium chloride, 2 mM calcium chloride, 2 mM phosphate, 0.5 mM EDTA at a pH of 6.5). The mRNA stored at 4° C. was stable to at least 60 days in both the TE and formulation buffer. At 25° C. the mRNA in formulation buffer was stable out to 14 days and the TE buffer was stable out to at least 6 days. Storage of mRNA in the formulation buffer at 37° C. was stable to 6 days compared to the TE buffer which was stable only until 4 days.

mice = assay: In vivo cytokine expression study (serum IFN-alpha); settings: mouse serum; I.M. 200 ug mRNA; after 8 hours
Experimental: After 8 hours serum was collected from the mice and analyzed for interferon-alpha (IFN-alpha) expression.

HEK293 cells = assay: In vitro expression of VEGF modified mRNA (ELISA); type: cell-based

## Prolactin
HEK293A
  secreted G-CSF protein: 7875 pg/mL
Mouse myoblast (C2C12)
  secreted G-CSF protein: 1525 pg/mL
Rat myoblast (L6 line)
  secreted G-CSF protein: 9800 pg/mL

## Albumin
HEK293A
  secreted G-CSF protein: 122050 pg/mL
Mouse myoblast (C2C12)
  secreted G-CSF protein: 81050 pg/mL
Rat myoblast (L6 line)
  secreted G-CSF protein: 173300 pg/mL

## α-1-anti trypsin
HEK293A
  secreted G-CSF protein: 9950 pg/mL
Mouse myoblast (C2C12)
  secreted G-CSF protein: 5000 pg/mL
Rat myoblast (L6 line)
  secreted G-CSF protein: 8475 pg/mL

## Natural Luciferase: natural luciferase mRNA SEQ ID NO: 16, Cap1
[1]
  AIM2 transcript level: 0.251 fold-induction relative to HPRT
  IFIT-1 transcript level: 151.218 fold-induction relative to HPRT
  IFNa transcript level: 0.067 fold-induction relative to HPRT
  IFNb transcript level: 11.404 fold-induction relative to HPRT
  IL6 transcript level: 20.6 fold-induction relative to HPRT
  OAS-1 transcript level: 20.778 fold-induction relative to HPRT
  PKR transcript level: 16.001 fold-induction relative to HPRT
  RIG-I transcript level: 71.5 fold-induction relative to HPRT
  TNFa transcript level: 0.526 fold-induction relative to HPRT

B1: G-CSF unmodified: unmodified G-CSF mRNA SEQ ID NO: 6, Cap1 (nucleic acid, listed as Homo sapiens)
chain: GGGAAAUAAGAGAGAAAAGAAGAGUAAGAAGAAAUAUAAGAGCCACCAUGGCCGGUCCCGCGACCCAAAGCCCCAUGAAACUUAUGGCCCUGCAGUUGCUGCUUUGGCACUCGGCCCUCUGGACAGUCCAAGAAGCGACUCCUCUCGGACCUGCCUCAUCGUUGCCGCAGUCAUUCCUUUUGAAGUGUCUGGAGCAGGUGCGAAAGAUUCAGGGCGAUGGAGCCGCACUCCAAGAGAAGCUCUGCGCGACAUACAAACUUUGCCAUCCCGAGGAGCUCGUACUGCUCGGGCACAGCUUGGGGAUUCCCUGGGCUCCUCUCUCGUCCUGUCCGUCGCAGGCUUUGCAGUUGGCAGGGUGCCUUUCCCAGCUCCACUCCGGUUUGUUCUUGUAUCAGGGACUGCUGCAAGCCCUUGAGGGAAUCUCGCCAGAAUUGGGCCCGACGCUGGACACGUUGCAGCUCGACGUGGCGGAUUUCGCAACAACCAUCUGGCAGCAGAUGGAGGAACUGGGGAUGGCACCCGCGCUGCAGCCCACGCAGGGGGCAAUGCCGGCCUUUGCGUCCGCGUUUCAGCGCAGGGCGGGUGGAGUCCUCGUAGCGAGCCACCUUCAAUCAUUUUUGGAAGUCUCGUACCGGGUGCUGAGACAUCUUGCGCAGCCGUGAAGCGCUGCCUUCUGCGGGGCUUGCCUUCUGGCCAUGCCCUUCUUCUCUCCCUUGCACCUGUACCUCUUGGUCUUUGAAUAAAGCCUGAGUAGGAAG
modifications: Cap1
[2]; 250 ng transfected daily for 5 days, 6 hours
  IFN-beta: 0 pg/mL
[2]; daily transfection, 6 hours
  IL-6: 3596 pg/mL
[2]; daily transfection, Day 1
  IFN-beta: 1363 pg/mL
  IL-6: 15207 pg/mL
[2]; daily transfection, Day 2
  IFN-beta: 238 pg/mL
  IL-6: 12415 pg/mL
[2]; daily transfection, Day 3
  IFN-beta: 225 pg/mL
  IL-6: 5017 pg/mL
[2]; daily transfection, Day 4
  IFN-beta: 363 pg/mL
  IL-6: 4267 pg/mL
[2]; daily transfection, Day 5
  IFN-beta: 225 pg/mL
  IL-6: 3094 pg/mL
Female BALB/C mice; Protein:Cytokine ratio, G-CSF / IFN-alpha in mouse serum
  PC Ratio: 9
Female BALB/C mice; human G-CSF in mouse serum, I.M., 200 ug/mouse mRNA (R848 75 ug) in 5% sucrose, 8 hours after dosing
  G-CSF protein: 605.6 pg/mL
Female BALB/C mice; mouse IFN-alpha in serum, I.M., 200 ug/mouse mRNA (R848 75 ug), 8 hours after dosing
  IFN-alpha expression: 67.01 pg/mL
[3]; stored at 25 C
  stable out to (storage time): 48 h
[3]; stored at 37 C
  stable out to (storage time): 6 h
[3]; stored at 50 C
  stable out to (storage time): 2 h
mice
  IFN-alpha: 67.012 pg/mL

B2: VEGF-A: modified mRNA VEGF-A SEQ ID NO: 19, Cap1, fully modified with 5-methylcytosine and pseudouridine, Lipofectamine2000 complexed (nucleic acid, listed as Homo sapiens)
sense: GGGAAAUAAGAGAGAAAAGAAGAGUAAGAAGAAAUAUAAGAGCCACCAUGAACUUUCUCUUGUCAUGGGUGCACUGGAGCCUUGCGCUGCUGCUGUAUCUUCAUCACGCUAAGUGGAGCCAGGCCGCACCCAUGGCGGAGGGUGGCGGACAGAAUCACCACGAAGUAGUCAAAUUCAUGGACGUGUACCAGAGGUCGUAUUGCCAUCCGAUUGAAACUCUUGUGGAUAUCUUUCAAGAAUACCCCGAUGAAAUCGAGUACAUUUUCAAACCGUCGUGUGUCCCUCUCAUGAGGUGCGGGGGAUGCUGCAAUGAUGAAGGGUUGGAGUGUGUCCCCACGGAGGAGUCGAAUAUCACAAUGCAAAUCAUGCGCAUCAAACCACAUCAGGGUCAGCAUAUUGGAGAGAUGUCCUUUCUCCAGCACAACAAAUGUGAGUGUAGACCGAAGAAGGACCGAGCCCGACAGGAAAACCCAUGCGGACCGUGCUCCGAGCGGCGCAAACACUUGUUCGUACAAGACCCCCAGACAUGCAAGUGCUCAUGUAAGAAUACCGAUUCGCGGUGUAAGGCGAGACAGCUGGAAUUGAACGAGCGCACGUGUAGGUGCGACAAGCCUAGACGGUGAGCUGCCUUCUGCGGGGCUUGCCUUCUGGCCAUGCCCUUCUUCUCUCCCUUGCACCUGUACCUCUUGGUCUUUGAAUAAAGCCUGAGUAGGAAG
modifications: Cap1, polyA, 5mC/pseudoU, Lipofectamine2000 complexed
HEK293 cells; amount transfected 2 pg
  Protein: 0 pg/mL
HEK293 cells; amount transfected 10 pg
  Protein: 0 pg/mL
HEK293 cells; amount transfected 39 pg
  Protein: 0 pg/mL
HEK293 cells; amount transfected 156 pg
  Protein: 189.6 pg/mL
HEK293 cells; amount transfected 625 pg
  Protein: 2321.23 pg/mL
HEK293 cells; amount transfected 2.5 ng
  Protein: 10038 pg/mL
HEK293 cells; amount transfected 10 ng
  Protein: 10495 pg/mL
HEK293 cells; amount transfected 610 fg
  Protein: 0 pg/mL

Source: patent US20160193299A1, “MODIFIED NUCLEOSIDE, NUCLEOTIDE, AND NUCLEIC ACID COMPOSITIONS” (Moderna Therapeutics, Inc., priority 2011, published 2016)
